From publication PMC3796201 (Nature structural & molecular biology, 2013)

Target: CRM1 (human, recombinant, His-tagged) (human, UniProt O14980 1-1071)
Assay: pull-down

Chain of CRM1 (human, recombinant, His-tagged) (O14980 whole entry): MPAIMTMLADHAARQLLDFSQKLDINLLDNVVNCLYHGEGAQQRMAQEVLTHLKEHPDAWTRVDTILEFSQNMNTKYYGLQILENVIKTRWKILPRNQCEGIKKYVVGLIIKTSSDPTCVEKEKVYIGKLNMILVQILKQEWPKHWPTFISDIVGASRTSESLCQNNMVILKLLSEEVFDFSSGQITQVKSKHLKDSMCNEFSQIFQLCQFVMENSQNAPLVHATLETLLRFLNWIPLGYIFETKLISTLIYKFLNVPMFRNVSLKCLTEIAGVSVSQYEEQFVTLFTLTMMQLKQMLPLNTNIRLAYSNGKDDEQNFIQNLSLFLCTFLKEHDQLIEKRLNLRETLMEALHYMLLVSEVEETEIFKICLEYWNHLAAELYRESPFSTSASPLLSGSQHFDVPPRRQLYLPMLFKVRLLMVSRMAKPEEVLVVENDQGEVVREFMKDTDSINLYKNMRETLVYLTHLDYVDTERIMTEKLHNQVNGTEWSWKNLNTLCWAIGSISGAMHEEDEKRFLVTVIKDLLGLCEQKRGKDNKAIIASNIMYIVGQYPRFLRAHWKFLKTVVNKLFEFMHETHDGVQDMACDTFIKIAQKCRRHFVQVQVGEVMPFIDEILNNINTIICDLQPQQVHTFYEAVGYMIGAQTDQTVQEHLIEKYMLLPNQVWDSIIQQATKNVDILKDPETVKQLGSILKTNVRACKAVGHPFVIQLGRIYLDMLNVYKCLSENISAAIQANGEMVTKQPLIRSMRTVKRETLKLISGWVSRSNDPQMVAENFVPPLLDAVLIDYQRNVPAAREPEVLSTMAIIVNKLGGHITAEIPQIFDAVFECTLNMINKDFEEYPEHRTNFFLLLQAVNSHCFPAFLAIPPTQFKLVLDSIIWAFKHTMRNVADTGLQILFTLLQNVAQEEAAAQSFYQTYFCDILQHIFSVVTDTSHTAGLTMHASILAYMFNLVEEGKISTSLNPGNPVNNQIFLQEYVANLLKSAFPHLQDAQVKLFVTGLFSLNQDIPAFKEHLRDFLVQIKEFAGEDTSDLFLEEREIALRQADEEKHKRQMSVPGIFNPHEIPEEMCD

binding result: binds
B1: GST-RAD51 F86E (natural protein, human, UniProt Q06609 1-339, looked up)
chain: MAMQMQLEANADTSVEEESFGPQPISRLEQCGINANDVKKLEEAGFHTVEAVAYAPKKELINIKGISEAKADKILAEAAKLVPMGETTATEFHQRRSEIIQITTGSKELDKLLQGGIETGSITEMFGEFRTGKTQICHTLAVTCQLPIDRGGGEGKAMYIDTEGTFRPERLLAVAERYGLSGSDVLDNVAYARAFNTDHQTQLLYQASAMMVESRYALLIVDSATALYRTDYSGRGELSARQMHLARFLRMLLRLADEFGVAVVITNQVVAQVDGAAMFAADPKKPIGGNIIAHASTTRLYLRKGRGETRICKIYDSPCLPEAEAMFAINADGVGDAKD
